Assay results reported in patent publication US20120178701A1 (PALATIN TECHNOLOGIES, published 2012).
Bridge positions count the residues as written; N and C are the ends. Square brackets hold non-standard residues; d marks the D form. * marks the point of attachment. Pro(4R-Bn) = O=C(O)[C@@H]1C[C@@H](Cc2ccccc2)CN1; Orn = NCCC[C@H](N)C(=O)O; Dab = NCC[C@H](N)C(=O)O; NHcPr = C1CC1N*

Molecular target: human recombinant melanocortin-1 receptor (human, UniProt Q01726 1-317)
Experiment: cell-based or functional assay

human recombinant melanocortin-1 receptor, sequence (Q01726 whole entry): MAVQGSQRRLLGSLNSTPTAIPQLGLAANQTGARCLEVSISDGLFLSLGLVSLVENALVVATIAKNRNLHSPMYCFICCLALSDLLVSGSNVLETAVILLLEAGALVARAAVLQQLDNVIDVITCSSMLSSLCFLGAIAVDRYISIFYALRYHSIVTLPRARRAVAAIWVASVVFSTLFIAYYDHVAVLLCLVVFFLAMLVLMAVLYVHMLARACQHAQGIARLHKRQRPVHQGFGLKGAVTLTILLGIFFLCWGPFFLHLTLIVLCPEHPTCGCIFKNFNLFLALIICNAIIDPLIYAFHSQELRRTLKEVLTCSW

Binder	hMC1-R Emax (%)
Ac-R[Orn]Q[dF]RWE-NH2 (lactam 2-7) [Ac-Arg-cyclo(Orn-Gln-D-Phe-Arg-Trp-Glu)-NH2]	89
Ac-[dR][Orn]Q[dF]RWE-NH2 (lactam 2-7) [Ac-D-Arg-cyclo(Orn-Gln-D-Phe-Arg-Trp-Glu)-NH2]	85

Molecular target: T1, human recombinant melanocortin-4 receptor (human, UniProt P32245 1-332)
Experiment: cell-based or functional assay

T1 sequence (P32245 whole entry): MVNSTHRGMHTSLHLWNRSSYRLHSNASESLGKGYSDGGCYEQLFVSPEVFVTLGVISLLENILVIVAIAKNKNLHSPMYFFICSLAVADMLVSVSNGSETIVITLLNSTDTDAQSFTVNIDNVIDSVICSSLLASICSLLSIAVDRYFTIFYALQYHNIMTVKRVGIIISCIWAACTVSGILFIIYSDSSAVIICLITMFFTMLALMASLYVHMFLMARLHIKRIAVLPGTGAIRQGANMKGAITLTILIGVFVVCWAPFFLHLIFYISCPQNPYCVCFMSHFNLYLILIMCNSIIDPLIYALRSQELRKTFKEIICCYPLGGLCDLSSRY

Binder	hMC4-R Emax (%)
Ac-[dR][Orn]Q[dF]RWE-NH2 (lactam 2-7) [Ac-D-Arg-cyclo(Orn-Gln-D-Phe-Arg-Trp-Glu)-NH2]	89

Molecular target: T1, human recombinant melanocortin-4 …
Experiment: competitive inhibition of Eu-NDP-α-MSH (TRF), hMC4-R HEK-293 membranes
Description: After incubation for 90 minutes at 37° C., the reaction was stopped by filtration over AcroWell 96-well filter plates (Pall Life Sciences). The filter plates were washed 4 times with 200 μL of ice-cold phosphate-buffered saline. DELFIA Enhancement solution (PerkinElmer Life Sciences) was added to each well. The plates were incubated on a shaker for 15 minutes and read at 340 nm excitation and 615 nm emission wavelengths. Each assay was conducted in duplicate and mean values were utilized. Ki values were determined by curve-fitting with Graph-Pad Prism® software using a one-site fixed-slope competition binding model.
9.1 Peptides of the following structures were synthesized by the general methods described above, and averaged MC4-R Ki values for peptides were determined as indicated. […] Ki values marked “ND” were not determined.

Binder	Ki [nM]
RDNFRWK (HELM PEPTIDE1{[ac].R.D.N.[dF].R.W.K.[am]}$PEPTIDE1,PEPTIDE1,3:R3-8:R3$$$V2.0; SMILES CC(=O)N[C@@H](CCCNC(=N)N)C(=O)N[C@H]1CC(=O)NCCCC[C@@H](C(N)=O)NC(=O)[C@H](Cc2c[nH]c3ccccc23)NC(=O)[C@H](CCCNC(=N)N)NC(=O)[C@@H](Cc2ccccc2)NC(=O)[C@H](CC(N)=O)NC1=O, also called peptide No. 29) [Ac-Arg-cyclo(Asp-Asn-D-Phe-Arg-Trp-Lys)-NH2]	32
RDHFRWK (HELM PEPTIDE1{[ac].R.D.H.[C[C@](Cc1ccccc1)(N[*:1])C(=O)[*:2]].R.W.K.[am]}$PEPTIDE1,PEPTIDE1,3:R3-8:R3$$$V2.0; SMILES CC(=O)N[C@@H](CCCNC(=N)N)C(=O)N[C@H]1CC(=O)NCCCC[C@@H](C(N)=O)NC(=O)[C@H](Cc2c[nH]c3ccccc23)NC(=O)[C@H](CCCNC(=N)N)NC(=O)[C@@](C)(Cc2ccccc2)NC(=O)[C@H](Cc2c[nH]cn2)NC1=O, also called peptide No. 60) [Ac-Arg-cyclo(Asp-His-D-(alpha-Me)Phe-Arg-Trp-Lys)-NH2]	47
RDHFKWK (HELM PEPTIDE1{[ac].R.D.H.[dF].K.W.K.[am]}$PEPTIDE1,PEPTIDE1,3:R3-8:R3$$$V2.0; SMILES CC(=O)N[C@@H](CCCNC(=N)N)C(=O)N[C@H]1CC(=O)NCCCC[C@@H](C(N)=O)NC(=O)[C@H](Cc2c[nH]c3ccccc23)NC(=O)[C@H](CCCCN)NC(=O)[C@@H](Cc2ccccc2)NC(=O)[C@H](Cc2c[nH]cn2)NC1=O, also called peptide No. 6) [Ac-Arg-cyclo(Asp-His-D-Phe-Lys-Trp-Lys)-NH2]	533
RDMFRWK (HELM PEPTIDE1{[ac].R.D.M.[dF].R.W.K.[am]}$PEPTIDE1,PEPTIDE1,3:R3-8:R3$$$V2.0; SMILES CSCC[C@@H]1NC(=O)[C@@H](NC(=O)[C@H](CCCNC(=N)N)NC(C)=O)CC(=O)NCCCC[C@@H](C(N)=O)NC(=O)[C@H](Cc2c[nH]c3ccccc23)NC(=O)[C@H](CCCNC(=N)N)NC(=O)[C@@H](Cc2ccccc2)NC1=O, also called peptide No. 38) [Ac-Arg-cyclo(Asp-Met-D-Phe-Arg-Trp-Lys)-NH2]	35
RDWFRWK (HELM PEPTIDE1{[ac].R.D.W.[dF].R.W.K.[am]}$PEPTIDE1,PEPTIDE1,3:R3-8:R3$$$V2.0; SMILES CC(=O)N[C@@H](CCCNC(=N)N)C(=O)N[C@H]1CC(=O)NCCCC[C@@H](C(N)=O)NC(=O)[C@H](Cc2c[nH]c3ccccc23)NC(=O)[C@H](CCCNC(=N)N)NC(=O)[C@@H](Cc2ccccc2)NC(=O)[C@H](Cc2c[nH]c3ccccc23)NC1=O, also called peptide No. 36) [Ac-Arg-cyclo(Asp-Trp-D-Phe-Arg-Trp-Lys)-NH2]	37
KDHFRWK (HELM PEPTIDE1{[ac].K.D.H.[dF].R.W.K.[am]}$PEPTIDE1,PEPTIDE1,3:R3-8:R3$$$V2.0; SMILES CC(=O)N[C@@H](CCCCN)C(=O)N[C@H]1CC(=O)NCCCC[C@@H](C(N)=O)NC(=O)[C@H](Cc2c[nH]c3ccccc23)NC(=O)[C@H](CCCNC(=N)N)NC(=O)[C@@H](Cc2ccccc2)NC(=O)[C@H](Cc2c[nH]cn2)NC1=O, also called peptide No. 135) [Ac-Lys-cyclo(Asp-His-D-Phe-Arg-Trp-Lys)-NH2]	9
Ac-REH[dF]RW[Orn]-NH2 (lactam 2-7, also called peptide No. 64) [Ac-Arg-cyclo(Glu-His-D-Phe-Arg-Trp-Orn)-NH2]	1
REKFRWX (HELM PEPTIDE1{[ac].R.E.K.[dF].R.W.[Orn]}$PEPTIDE1,PEPTIDE1,3:R3-8:R3$$$V2.0; SMILES CC(=O)N[C@@H](CCCNC(=N)N)C(=O)N[C@H]1CCC(=O)NCCC[C@@H](C(=O)O)NC(=O)[C@H](Cc2c[nH]c3ccccc23)NC(=O)[C@H](CCCNC(=N)N)NC(=O)[C@@H](Cc2ccccc2)NC(=O)[C@H](CCCCN)NC1=O, also called peptide No. 89) [Ac-Arg-cyclo(Glu-Lys-D-Phe-Arg-Trp-Orn)-OH]	113
Ac-RD[Pro(4R-Bn)][dF]RWK-NH2 (lactam 2-7, also called peptide No. 18) [Ac-Arg-cyclo(Asp-Pro(4R-Bzl)-D-Phe-Arg-Trp-Lys)-NH2]	3
Ac-[dR]EH[dF]RW[Orn]-OH (lactam 2-7, also called peptide No. 85) [Ac-D-Arg-cyclo(Glu-His-D-Phe-Arg-Trp-Orn)-OH]	40
Ac-REH[dF]RW[Orn]-NHcPr (lactam 2-7, also called peptide No. 110) [Ac-Arg-cyclo(Glu-His-D-Phe-Arg-Trp-Orn)-NH-cyclopropyl]	1
Ac-R[Orn][Dab][dF]RWE-NH2 (lactam 2-7, also called peptide No. 119) [Ac-Arg-cyclo(Orn-Dab-D-Phe-Arg-Trp-Glu)-NH2]	3
Ac-RD[Pro(4R-2-Cl-Bzl)][dF]RWK-NH2 (lactam 2-7, also called peptide No. 123) [Ac-Arg-cyclo(Asp-Pro(4R-2-Cl-Bzl)-D-Phe-Arg-Trp-Lys)-NH2]	8
Ac-RD[Pro(4R-3-Cl-Bzl)][dF]RWK-NH2 (lactam 2-7, also called peptide No. 124) [Ac-Arg-cyclo(Asp-Pro(4R-3-Cl-Bzl)-D-Phe-Arg-Trp-Lys)-NH2]	19

Next, values leading:

Ki [nM]	Binder
2960	RDKFKWK (HELM PEPTIDE1{[ac].R.D.K.[dF].K.W.K.[am]}$PEPTIDE1,PEPTIDE1,3:R3-8:R3$$$V2.0; SMILES CC(=O)N[C@@H](CCCNC(=N)N)C(=O)N[C@H]1CC(=O)NCCCC[C@@H](C(N)=O)NC(=O)[C@H](Cc2c[nH]c3ccccc23)NC(=O)[C@H](CCCCN)NC(=O)[C@@H](Cc2ccccc2)NC(=O)[C@H](CCCCN)NC1=O, also called peptide No. 7) [Ac-Arg-cyclo(Asp-Lys-D-Phe-Lys-Trp-Lys)-NH2]
140	Ac-RDT[dF]RWK-NH2 (lactam 2-7, also called peptide No. 35) [Ac-Arg-cyclo(Asp-Thr-D-Phe-Arg-Trp-Lys)-NH2]
86	Ac-RDQ[dF]RWK-NH2 (lactam 2-7, any difference is only in the drawings; also called peptide No. 78) [Ac-Arg-cyclo(Asp-Gln-D-Phe-Arg-Trp-Lys)-NH2]
64	Ac-RDQ[dF]RWK-NHcPr (lactam 2-7) [Ac-Arg-cyclo(Asp-Gln-D-Phe-Arg-Trp-Lys)-NH-cyclopropyl]
46	Ac-[dR]DA[dF]RWK-NH2 (lactam 2-7, also called peptide No. 70) [Ac-D-Arg-cyclo(Asp-Ala-D-Phe-Arg-Trp-Lys)-NH2]
43	RDYFRWK (HELM PEPTIDE1{[ac].R.D.Y.[dF].R.W.K.[am]}$PEPTIDE1,PEPTIDE1,3:R3-8:R3$$$V2.0; SMILES CC(=O)N[C@@H](CCCNC(=N)N)C(=O)N[C@H]1CC(=O)NCCCC[C@@H](C(N)=O)NC(=O)[C@H](Cc2c[nH]c3ccccc23)NC(=O)[C@H](CCCNC(=N)N)NC(=O)[C@@H](Cc2ccccc2)NC(=O)[C@H](Cc2ccc(O)cc2)NC1=O, also called peptide No. 11) [Ac-Arg-cyclo(Asp-Tyr-D-Phe-Arg-Trp-Lys)-NH2]
33	RDLFRWK (HELM PEPTIDE1{[ac].R.D.L.[dF].R.W.K.[am]}$PEPTIDE1,PEPTIDE1,3:R3-8:R3$$$V2.0; SMILES CC(=O)N[C@@H](CCCNC(=N)N)C(=O)N[C@H]1CC(=O)NCCCC[C@@H](C(N)=O)NC(=O)[C@H](Cc2c[nH]c3ccccc23)NC(=O)[C@H](CCCNC(=N)N)NC(=O)[C@@H](Cc2ccccc2)NC(=O)[C@H](CC(C)C)NC1=O, also called peptide No. 12) [Ac-Arg-cyclo(Asp-Leu-D-Phe-Arg-Trp-Lys)-NH2]
19	RDIFRWK (HELM PEPTIDE1{[ac].R.D.I.[dF].R.W.K.[am]}$PEPTIDE1,PEPTIDE1,3:R3-8:R3$$$V2.0; SMILES CC[C@H](C)[C@@H]1NC(=O)[C@@H](NC(=O)[C@H](CCCNC(=N)N)NC(C)=O)CC(=O)NCCCC[C@@H](C(N)=O)NC(=O)[C@H](Cc2c[nH]c3ccccc23)NC(=O)[C@H](CCCNC(=N)N)NC(=O)[C@@H](Cc2ccccc2)NC1=O, also called peptide No. 34) [Ac-Arg-cyclo(Asp-Ile-D-Phe-Arg-Trp-Lys)-NH2]
19	RXAFRWE (HELM PEPTIDE1{[ac].R.[Orn].A.[dF].R.W.E.[am]}$PEPTIDE1,PEPTIDE1,3:R3-8:R3$$$V2.0; SMILES CC(=O)N[C@@H](CCCNC(=N)N)C(=O)N[C@H]1CCCNC(=O)CC[C@@H](C(N)=O)NC(=O)[C@H](Cc2c[nH]c3ccccc23)NC(=O)[C@H](CCCNC(=N)N)NC(=O)[C@@H](Cc2ccccc2)NC(=O)[C@H](C)NC1=O, also called peptide No. 120) [Ac-Arg-cyclo(Orn-Ala-D-Phe-Arg-Trp-Glu)-NH2]
12	Ac-R[Orn]H[dF]RWE-OH (lactam 2-7, also called peptide No. 84) [Ac-Arg-cyclo(Orn-His-D-Phe-Arg-Trp-Glu)-OH]
9	Ac-RE[Orn][dF]RW[Orn]-NH2 (lactam 2-7, also called peptide No. 104) [Ac-Arg-cyclo(Glu-Orn-D-Phe-Arg-Trp-Orn)-NH2]
8	Ac-[dK][Orn]H[dF]RWE-NH2 (lactam 2-7) [Ac-D-Lys-cyclo(Orn-His-D-Phe-Arg-Trp-Glu)-NH2]
6	Ac-REH[dF]RW[Orn]-NHEt (lactam 2-7, also called peptide No. 109) [Ac-Arg-cyclo(Glu-His-D-Phe-Arg-Trp-Orn)-NH-Et]
4	Ac-[dR][Orn]H[dF]RWE-NH2 (lactam 2-7, also called peptide No. 98) [Ac-D-Arg-cyclo(Orn-His-D-Phe-Arg-Trp-Glu)-NH2]
3	Ac-K[Orn]H[dF]RWE-NH2 (lactam 2-7, also called peptide No. 132) [Ac-Lys-cyclo(Orn-His-D-Phe-Arg-Trp-Glu)-NH2]
2	Ac-[dR]D[Pro(4R-Bn)][dF]RWK-NH2 (lactam 2-7, also called peptide No. 72) [Ac-D-Arg-cyclo(Asp-Pro(4R-Bzl)-D-Phe-Arg-Trp-Lys)-NH2]
1	Ac-RKH[dF]RWD-NH2 (lactam 2-7, also called peptide No. 96) [Ac-Arg-cyclo(Lys-His-D-Phe-Arg-Trp-Asp)-NH2]
